Data from patent US20100015126A1, “Methods of Binding of Cross-Beta Structures By Chaperones” (priority 2006, published 2010).

Target: T1, human BiP (Homo sapiens, UniProt P11021)
T1 construct: The human BiP gene except the signal peptide encoding region was obtained from Geneart (Germany); linker […]; made in house; host or cells: HEK 293E cells, transient transfection, PABC674 vector; secreted into the medium
Assay: Competition ELISA: BiP binding to misfolded proteins under influence of crossbeta binding compounds
Conditions: fixed sub-optimal BiP concentration
Method: Binding of chaperones to immobilized (misfolded) protein ligands was determined using an enzyme linked immuno sorbent assay (ELISA) approach. For this purpose 50 μl/well of potential ligands at indicated concentrations or coat buffer only for control and background measurement purposes, were coated overnight at 4° C. or coated for 1 h at room temperature, with motion, in 50 mM NaHCO3 pH 9.6 (coat buffer). In general, ligands were coated at 5 μg/ml, unless stated otherwise. For example, BiP binding peptides 6BB# and oxLDL were coated at 50 μg/ml. Native haemoglobin (Sigma-Aldrich, H7379), albumin, IgIV Gammagard and ovalbumin controls were prepared from lyophilized stocks. The controls were prepared by dissolving lyophilized proteins at 1 mg/ml in PBS upon resuspending by pipetting, followed by a 30 minutes period at the roller device, at room temperature. The protein solutions were centrifuged for 10 minutes at 16,000*g and diluted in coat buffer. After coating the plates were washed at least three times with 50 mM Tris-HCl pH 7.3, 150 mM NaCl, 0.1% v/v Tween20, and blocked with Blocking reagent (Roche Diagnostics, Almere, The Netherlands; 11112589001), for 1 h at room temperature, with motion. Plates were washed three times and incubated in triplicate with indicated chaperone dilution series, at 50 μl/well, for 1 h at room temperature, with constant motion. For HSP90, 5 mM DTT is incorporated in the binding buffer (PBS/0.1% Tween20) to avoid unwanted disulfide bond formation of the HSP90. […] After four wash cycles, secondary antibodies were added to the wells when required, 50 μl/well, for 45′ at room temperature, with motion. RAMPO and SWARPO were used at 3000 times dilution. […] In a second experiment with more immobilized misfolded proteins and controls, the detection of bound HSP90 with the mix of two anti-HSP90 antibodies was achieved by mixing 1:1500 SWARPO with 1:3000 RAMPO. After 5 washes with wash buffer followed by two washes with PBS, binding of antibodies was assessed. […] Plates were read at 450 nm. Triplicates were averaged and standard deviations calculated. […] Subsequently, sub-optimal concentrations of chaperones for binding to misfolded protein ligands are determined, and these concentrations are used for inhibition studies.
In a subsequent study we analysed whether BiP interacts directly with the crossbeta structure, by performing ELISA binding studies with a fixed sub-optimal concentration of BiP and concentration series of crossbeta binding compounds. […]

T1 sequence (P11021 19-654): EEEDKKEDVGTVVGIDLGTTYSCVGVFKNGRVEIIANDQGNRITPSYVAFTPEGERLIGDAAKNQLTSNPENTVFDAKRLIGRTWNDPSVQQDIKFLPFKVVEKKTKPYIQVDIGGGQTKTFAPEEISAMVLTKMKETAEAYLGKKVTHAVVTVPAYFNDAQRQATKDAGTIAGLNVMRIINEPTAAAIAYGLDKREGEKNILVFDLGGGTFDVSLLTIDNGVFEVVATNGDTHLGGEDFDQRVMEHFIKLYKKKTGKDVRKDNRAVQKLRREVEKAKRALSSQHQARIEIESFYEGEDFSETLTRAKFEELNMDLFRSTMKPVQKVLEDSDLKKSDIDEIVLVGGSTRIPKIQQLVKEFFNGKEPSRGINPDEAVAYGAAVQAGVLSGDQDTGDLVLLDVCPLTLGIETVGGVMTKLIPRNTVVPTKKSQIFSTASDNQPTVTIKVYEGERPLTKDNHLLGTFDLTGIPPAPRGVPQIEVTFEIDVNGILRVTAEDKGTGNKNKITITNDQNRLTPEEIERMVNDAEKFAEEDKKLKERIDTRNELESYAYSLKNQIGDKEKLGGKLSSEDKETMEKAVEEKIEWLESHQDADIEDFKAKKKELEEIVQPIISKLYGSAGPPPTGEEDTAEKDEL

Influence of K2P tPA on interaction of BiP with misfolded protein (10 mM ε-amino caproic acid): −
B1: dOVA standard: heat-denatured chicken ovalbumin (protein)
chain: GSIGAASMEFCFDVFKELKVHHANENIFYCPIAIMSALAMVYLGAKDSTRTQINKVVRFDKLPGFGDSIEAQCGTSVNVHSSLRDILNQITKPNDVYSFSLASRLYAEERYPILPEYLQCVKELYRGGLEPINFQTAADQARELINSWVESQTNGIIRNVLQPSSVDSQTAMVLVNAIVFKGLWEKAFKDEDTQAMPFRVTEQESKPVQMMYQIGLFRVASMASEKMKILELPFASGTMSMLVLLPDEVSGLEQLESIINFEKLTEWTSSNVMEERKIKVYLPRMKMEEKYNLTSVLMAMGITDVFSSSANLSGISSAESLKISQAVHAAHAEINEAGREVVGSAEAGVDAASVSEEFRADHPFLFCIKHIATNAVLFFGRCVSP
Influence of tPA on interaction of BiP with misfolded protein (10 mM ε-amino caproic acid): ↓ (a ↓ sign refers to inhibited abolished binding of BiP)
Influence of Congo red on interaction of BiP with misfolded protein (concentration series of Congo red): ↓ (a ↓ sign refers to inhibited abolished binding of BiP)
Influence of ThS on interaction of BiP with misfolded protein (concentration series of ThS): ↓ (a ↓ sign refers to inhibited abolished binding of BiP)
